Assays:
[1] = target: TNFα (fused trimer) - AVI Tag, biotinylated, in the presence of compound (3); assay: TR-FRET, 7.5 nM proteins, compound (3) up to 25 µM; partial loss of receptor binding
[2] = target: TNFα (fused trimer) - AVI Tag, biotinylated, in the presence of compound (4); assay: TR-FRET, 7.5 nM proteins, compound (4) up to 25 µM; partial loss of receptor binding
[3] = target: T1, fused human TNFα trimer in complex with compound (2) (human, UniProt P01375 77-233; P01375 86-233; P01375 86-233, limits assumed); assay: analytical SEC (HPLC, TSK G3000SW), Abs 280 nm against retention time; 3.2 fold excess of TNFR1 over fused TNFα trimer preincubated with 90, 240, 465 or 690 µM compound (2) [D00007 Fig. 5(Cont.]
T1 construct: also called trimer-compound complex; compound-trimer complex
T1 sequence (P01375 other isoform, or with tags, fused parts or gaps limits assumed): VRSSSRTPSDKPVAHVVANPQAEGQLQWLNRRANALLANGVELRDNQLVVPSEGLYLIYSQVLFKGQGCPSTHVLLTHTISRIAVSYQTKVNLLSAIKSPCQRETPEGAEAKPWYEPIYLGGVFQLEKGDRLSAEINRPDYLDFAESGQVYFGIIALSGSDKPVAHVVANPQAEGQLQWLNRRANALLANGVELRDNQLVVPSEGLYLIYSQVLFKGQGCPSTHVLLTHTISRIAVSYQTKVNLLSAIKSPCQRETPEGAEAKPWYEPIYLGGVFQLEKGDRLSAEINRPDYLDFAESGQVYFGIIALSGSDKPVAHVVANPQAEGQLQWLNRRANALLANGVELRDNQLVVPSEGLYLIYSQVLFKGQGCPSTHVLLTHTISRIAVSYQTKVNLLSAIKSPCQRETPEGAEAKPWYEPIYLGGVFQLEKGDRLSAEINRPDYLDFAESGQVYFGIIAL
Experimental: The final concentration of DMSO was 0.25%. The mixture was incubated for 1 hour at 22° C.

[4] = target: T2, fused human TNFα trimer in complex with compound (5) (human, UniProt P01375 77-233; P01375 86-233; P01375 86-233, limits assumed); assay: analytical SEC (Superdex 200HR 10/300), Abs 280 nm against retention (CV); 3.5 fold excess of TNFR1 over trimer preincubated with 200 µM compound (5)
T2 construct: also called trimer-compound complex
T2 sequence (P01375 other isoform, or with tags, fused parts or gaps limits assumed): as above
Experimental: The final concentration of DMSO was 1.0%. The mixture was incubated for 1 hour at 22° C.

[5] = target: T3, soluble form of mouse TNFα (VC 6535) in complex with compound (1) (mouse, UniProt P06804 89-235); assay: X-ray crystallography, 3.15 Å
T3 construct: also called murine TNFα; trimer-compound complex
T3 sequence: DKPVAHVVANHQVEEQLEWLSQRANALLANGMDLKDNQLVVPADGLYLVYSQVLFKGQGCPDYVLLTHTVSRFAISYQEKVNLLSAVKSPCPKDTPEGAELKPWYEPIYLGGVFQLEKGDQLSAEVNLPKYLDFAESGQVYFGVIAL
Experimental: The final purified ternary complex was concentrated to 18.5 mg/ml and immediately used in crystallization trials.
The ternary complex was crystallized by sitting drop vapor diffusion by mixing 0.5 μl of complex with 0.5 μl of 800 mM sodium potassium tartrate, 0.5% PEG5000 MME, 100 mM Tris pH 8.5 over 100 μl of the same crystallization solution. Crystals were harvested for data collection approximately 2 months after initial set up. They were briefly soaked in paraffin oil and frozen directly in liquid nitrogen for data collection on Aug. 17, 2012 at Argonne Photon Source, beamline 21-IDF.

TNFR1(ECD)-6xLysine-Human single chain Fc, Alexa Fluor 488 conjugated (from UniProt P19438 30-211) (Fc fusion)
maximal inhibition of FRET signal [1]: 29% | maximal inhibition of FRET signal [2]: 36%

B1: Human TNFR1 (V43-N184)(N54D, C182S) (receptor, UniProt P19438 43-184, looked up)
chain: VCPQGKYIHPQDNSICCTKCHKGTYLYNDCPGPGQDTDCRECESGSFTASENHLRHCLSCSKCRKEMGQVEISSCTVDRDTVCGCRKNQYRHYWSENLFQCFNCSLCLNGTVHLSCQEKQNTVCTCHAGFFLRENECVSSSN
notes: also called receptor
binding result [3]: binds | binding result [4]: binds

B2: extracellular domain of human TNFR1 (VC 5602) (receptor)
chain: GSVCPQGKYIHPQDNSICCTKCHKGTYLYNDCPGPGQDTDCRECESGSFTASENHLRHCLSCSKCRKEMGQVEISSCTVDRDTVCGCRKNQYRHYWSENLFQCFNCSLCLNGTVHLSCQEKQNTVCTCHAGFFLRENECVSSSN
notes: Expressed in baculovirus infected insect cells
binding result [5]: binds

Reference: patent publication US20180203016A1 (UCB, published 2018)
